Laboratory results reported in patent publication US20210275641A1 (SYNTHEKINE, published 2021).
Where a chain is given by its changes, count along the chain named. Names and notes keep the numbering of the source. Each block holds one binder with its values, some of them ahead of it.

Target: T1, human high affinity trimeric IL-2 receptor (CD25/CD122/CD132) (human, UniProt P01589 22-272; P14784 27-551; P31785 23-369)
T1 sequence 1: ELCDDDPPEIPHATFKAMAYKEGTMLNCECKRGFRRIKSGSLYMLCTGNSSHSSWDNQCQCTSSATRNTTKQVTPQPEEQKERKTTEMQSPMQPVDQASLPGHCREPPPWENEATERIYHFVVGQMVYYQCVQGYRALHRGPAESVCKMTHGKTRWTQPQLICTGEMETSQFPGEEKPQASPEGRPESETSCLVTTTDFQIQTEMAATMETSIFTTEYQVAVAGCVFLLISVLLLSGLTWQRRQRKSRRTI
T1 sequence 2: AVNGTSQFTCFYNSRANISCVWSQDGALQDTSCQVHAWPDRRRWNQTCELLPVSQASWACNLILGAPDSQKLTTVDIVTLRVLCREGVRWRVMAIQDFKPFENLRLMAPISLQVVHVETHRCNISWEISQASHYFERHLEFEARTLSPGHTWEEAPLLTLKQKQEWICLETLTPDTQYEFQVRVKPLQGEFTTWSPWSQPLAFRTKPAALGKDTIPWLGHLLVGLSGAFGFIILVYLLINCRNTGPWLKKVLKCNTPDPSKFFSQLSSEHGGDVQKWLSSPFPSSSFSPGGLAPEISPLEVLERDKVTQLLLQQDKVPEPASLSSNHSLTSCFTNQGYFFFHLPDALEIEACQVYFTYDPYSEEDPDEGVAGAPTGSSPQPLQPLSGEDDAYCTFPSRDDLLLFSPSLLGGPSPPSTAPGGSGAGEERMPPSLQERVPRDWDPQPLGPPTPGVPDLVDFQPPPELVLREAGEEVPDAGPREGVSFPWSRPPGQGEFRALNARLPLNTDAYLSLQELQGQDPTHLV
T1 sequence 3: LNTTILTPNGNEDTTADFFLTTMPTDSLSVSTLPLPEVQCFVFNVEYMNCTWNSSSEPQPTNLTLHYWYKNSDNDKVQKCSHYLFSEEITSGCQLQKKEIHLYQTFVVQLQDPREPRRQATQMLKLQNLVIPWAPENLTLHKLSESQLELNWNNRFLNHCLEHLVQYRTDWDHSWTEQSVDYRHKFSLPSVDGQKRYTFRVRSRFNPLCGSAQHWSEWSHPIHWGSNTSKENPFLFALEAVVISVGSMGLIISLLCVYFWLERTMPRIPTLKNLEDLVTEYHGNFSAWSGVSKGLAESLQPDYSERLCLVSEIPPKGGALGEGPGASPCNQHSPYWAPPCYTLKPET
Assay: cell-based or functional assay

- pSTAT5 ratio YT CD25/YT, dilution factor 2, lower table: 0.9
- pSTAT5 ratio YT CD25/YT, dilution factor 4, lower table: 2
- pSTAT5 ratio YT CD25/YT, dilution factor 8, lower table: 4.2
- pSTAT5 ratio YT CD25/YT, dilution factor 16, lower table: 7.5
- pSTAT5 ratio YT CD25/YT, dilution factor 32, lower table: 8.2
- pSTAT5 ratio YT CD25/YT, dilution factor 64, lower table: 10.6
- pSTAT5 ratio YT CD25/YT, dilution factor 128, lower table: 9.9
B5: DEH (ligand)
cytokine: APTSSSTKKTQLQLEHLDLDLEMILNGINNYKNPKLTRMLTFKFYMPKKATELKHLQCLEEELKPLEEVLNLAQSKNFHLRPRDLISNINVIVLELKGSETTFMCEYADETATIVEFLNRWITFCHSIISTLT

- pSTAT5 ratio YT CD25/YT, dilution factor 2, upper table: 1.4
- pSTAT5 ratio YT CD25/YT, dilution factor 4, upper table: 2.3
- pSTAT5 ratio YT CD25/YT, dilution factor 8, upper table: 4.8
- pSTAT5 ratio YT CD25/YT, dilution factor 16, upper table: 8.4
- pSTAT5 ratio YT CD25/YT, dilution factor 32, upper table: 14.7
- pSTAT5 ratio YT CD25/YT, dilution factor 64, upper table: 16.9
- pSTAT5 ratio YT CD25/YT, dilution factor 128, upper table: 17
B6: EEH (ligand)
cytokine: B5 cytokine with D18E

- pSTAT5 ratio YT CD25/YT, dilution factor 2, lower table: 0.9
- pSTAT5 ratio YT CD25/YT, dilution factor 4, lower table: 1.1
- pSTAT5 ratio YT CD25/YT, dilution factor 8, lower table: 1.8
- pSTAT5 ratio YT CD25/YT, dilution factor 16, lower table: 2.6
- pSTAT5 ratio YT CD25/YT, dilution factor 32, lower table: 5.1
- pSTAT5 ratio YT CD25/YT, dilution factor 64, lower table: 7.9
- pSTAT5 ratio YT CD25/YT, dilution factor 128, lower table: 11.9
B7: NEH (ligand)
cytokine: B5 cytokine with D18N

- pSTAT5 ratio YT CD25/YT, dilution factor 2, lower table: 0.8
- pSTAT5 ratio YT CD25/YT, dilution factor 4, lower table: 1.1
- pSTAT5 ratio YT CD25/YT, dilution factor 8, lower table: 1.5
- pSTAT5 ratio YT CD25/YT, dilution factor 16, lower table: 2.5
- pSTAT5 ratio YT CD25/YT, dilution factor 32, lower table: 3.3
- pSTAT5 ratio YT CD25/YT, dilution factor 64, lower table: 4.9
- pSTAT5 ratio YT CD25/YT, dilution factor 128, lower table: 6.7
B11: RLH (ligand)
cytokine: B5 cytokine with D18R, E22L

- pSTAT5 ratio YT CD25/YT, dilution factor 2, lower table: 1
- pSTAT5 ratio YT CD25/YT, dilution factor 4, lower table: 1.2
- pSTAT5 ratio YT CD25/YT, dilution factor 8, lower table: 1.8
- pSTAT5 ratio YT CD25/YT, dilution factor 16, lower table: 3.1
- pSTAT5 ratio YT CD25/YT, dilution factor 32, lower table: 5.6
- pSTAT5 ratio YT CD25/YT, dilution factor 64, lower table: 8.3
- pSTAT5 ratio YT CD25/YT, dilution factor 128, lower table: 11.8
B17: HEH (ligand)
cytokine: B5 cytokine with D18H

More lines, now with the values behind:

B1: hIL2 mutein REH (L18R, Q22E, Q126H) (ligand)
chain: B5 cytokine with D18R
- pSTAT5 ratio YT CD25/YT, dilution factor 2, lower table: 0.8
- pSTAT5 ratio YT CD25/YT, dilution factor 2, upper table: 0.9
- pSTAT5 ratio YT CD25/YT, dilution factor 4, lower table: 0.9
- pSTAT5 ratio YT CD25/YT, dilution factor 4, upper table: 1
- pSTAT5 ratio YT CD25/YT, dilution factor 8, lower table: 1
- pSTAT5 ratio YT CD25/YT, dilution factor 8, upper table: 1.1
- pSTAT5 ratio YT CD25/YT, dilution factor 16, lower table: 1.3
- pSTAT5 ratio YT CD25/YT, dilution factor 16, upper table: 1.3
- pSTAT5 ratio YT CD25/YT, dilution factor 32, lower table: 1.6
- pSTAT5 ratio YT CD25/YT, dilution factor 32, upper table: 1.8
- pSTAT5 ratio YT CD25/YT, dilution factor 64, lower table: 2.4
- pSTAT5 ratio YT CD25/YT, dilution factor 64, upper table: 2.9
- pSTAT5 ratio YT CD25/YT, dilution factor 128, lower table: 3.9
- pSTAT5 ratio YT CD25/YT, dilution factor 128, upper table: 4.7

B2: QEH (ligand)
cytokine: B5 cytokine with D18Q
- pSTAT5 ratio YT CD25/YT, dilution factor 2, upper table: 1.1
- pSTAT5 ratio YT CD25/YT, dilution factor 4, upper table: 1.3
- pSTAT5 ratio YT CD25/YT, dilution factor 8, upper table: 1.8
- pSTAT5 ratio YT CD25/YT, dilution factor 16, upper table: 3.1
- pSTAT5 ratio YT CD25/YT, dilution factor 32, upper table: 5.8
- pSTAT5 ratio YT CD25/YT, dilution factor 64, upper table: 8.3
- pSTAT5 ratio YT CD25/YT, dilution factor 128, upper table: 11.7

B3: SEH (ligand)
cytokine: B5 cytokine with D18S
- pSTAT5 ratio YT CD25/YT, dilution factor 2, upper table: 1.2
- pSTAT5 ratio YT CD25/YT, dilution factor 4, upper table: 1.5
- pSTAT5 ratio YT CD25/YT, dilution factor 8, upper table: 2.5
- pSTAT5 ratio YT CD25/YT, dilution factor 16, upper table: 4
- pSTAT5 ratio YT CD25/YT, dilution factor 32, upper table: 7.8
- pSTAT5 ratio YT CD25/YT, dilution factor 64, upper table: 11.4
- pSTAT5 ratio YT CD25/YT, dilution factor 128, upper table: 15.1

B4: KEH (ligand)
cytokine: B5 cytokine with D18K
- pSTAT5 ratio YT CD25/YT, dilution factor 2, upper table: 1.1
- pSTAT5 ratio YT CD25/YT, dilution factor 4, upper table: 1
- pSTAT5 ratio YT CD25/YT, dilution factor 8, upper table: 1.1
- pSTAT5 ratio YT CD25/YT, dilution factor 16, upper table: 1.4
- pSTAT5 ratio YT CD25/YT, dilution factor 32, upper table: 1.6
- pSTAT5 ratio YT CD25/YT, dilution factor 64, upper table: 2.3
- pSTAT5 ratio YT CD25/YT, dilution factor 128, upper table: 4

B8: YEH (ligand)
cytokine: B5 cytokine with D18Y
- pSTAT5 ratio YT CD25/YT, dilution factor 2, lower table: 0.8
- pSTAT5 ratio YT CD25/YT, dilution factor 4, lower table: 0.9
- pSTAT5 ratio YT CD25/YT, dilution factor 8, lower table: 1
- pSTAT5 ratio YT CD25/YT, dilution factor 16, lower table: 1.2
- pSTAT5 ratio YT CD25/YT, dilution factor 32, lower table: 1.5
- pSTAT5 ratio YT CD25/YT, dilution factor 64, lower table: 2
- pSTAT5 ratio YT CD25/YT, dilution factor 128, lower table: 3.4

B9: VEH (ligand)
cytokine: B5 cytokine with D18V
- pSTAT5 ratio YT CD25/YT, dilution factor 2, upper table: 1.2
- pSTAT5 ratio YT CD25/YT, dilution factor 4, upper table: 1.6
- pSTAT5 ratio YT CD25/YT, dilution factor 8, upper table: 2.4
- pSTAT5 ratio YT CD25/YT, dilution factor 16, upper table: 3.6
- pSTAT5 ratio YT CD25/YT, dilution factor 32, upper table: 6.3
- pSTAT5 ratio YT CD25/YT, dilution factor 64, upper table: 10.9
- pSTAT5 ratio YT CD25/YT, dilution factor 128, upper table: 14.8

B10: IEH (ligand)
cytokine: B5 cytokine with D18I
- pSTAT5 ratio YT CD25/YT, dilution factor 2, upper table: 1.2
- pSTAT5 ratio YT CD25/YT, dilution factor 4, upper table: 1.4
- pSTAT5 ratio YT CD25/YT, dilution factor 8, upper table: 1.6
- pSTAT5 ratio YT CD25/YT, dilution factor 16, upper table: 2.6
- pSTAT5 ratio YT CD25/YT, dilution factor 32, upper table: 4.6
- pSTAT5 ratio YT CD25/YT, dilution factor 64, upper table: 7.2
- pSTAT5 ratio YT CD25/YT, dilution factor 128, upper table: 10.9

B12: WEH (ligand)
cytokine: B5 cytokine with D18W
- pSTAT5 ratio YT CD25/YT, dilution factor 2, upper table: 1.1
- pSTAT5 ratio YT CD25/YT, dilution factor 4, upper table: 1.4
- pSTAT5 ratio YT CD25/YT, dilution factor 8, upper table: 1.5
- pSTAT5 ratio YT CD25/YT, dilution factor 16, upper table: 2.2
- pSTAT5 ratio YT CD25/YT, dilution factor 32, upper table: 3.9
- pSTAT5 ratio YT CD25/YT, dilution factor 64, upper table: 6.4
- pSTAT5 ratio YT CD25/YT, dilution factor 128, upper table: 10

B13: FEH (ligand)
cytokine: B5 cytokine with D18F
- pSTAT5 ratio YT CD25/YT, dilution factor 2, upper table: 0.9
- pSTAT5 ratio YT CD25/YT, dilution factor 4, upper table: 1.2
- pSTAT5 ratio YT CD25/YT, dilution factor 8, upper table: 1.3
- pSTAT5 ratio YT CD25/YT, dilution factor 16, upper table: 1.4
- pSTAT5 ratio YT CD25/YT, dilution factor 32, upper table: 1.7
- pSTAT5 ratio YT CD25/YT, dilution factor 64, upper table: 2.9
- pSTAT5 ratio YT CD25/YT, dilution factor 128, upper table: 4.7

B14: TEH (ligand)
cytokine: B5 cytokine with D18T
- pSTAT5 ratio YT CD25/YT, dilution factor 2, lower table: 0.5
- pSTAT5 ratio YT CD25/YT, dilution factor 4, lower table: 0.6
- pSTAT5 ratio YT CD25/YT, dilution factor 8, lower table: 0.9
- pSTAT5 ratio YT CD25/YT, dilution factor 16, lower table: 1.3
- pSTAT5 ratio YT CD25/YT, dilution factor 32, lower table: 1.9
- pSTAT5 ratio YT CD25/YT, dilution factor 64, lower table: 3.3
- pSTAT5 ratio YT CD25/YT, dilution factor 128, lower table: 5.2

B15: RAH (ligand)
cytokine: B5 cytokine with D18R, E22A
- pSTAT5 ratio YT CD25/YT, dilution factor 2, lower table: 0.6
- pSTAT5 ratio YT CD25/YT, dilution factor 4, lower table: 0.7
- pSTAT5 ratio YT CD25/YT, dilution factor 8, lower table: 0.8
- pSTAT5 ratio YT CD25/YT, dilution factor 16, lower table: 1.2
- pSTAT5 ratio YT CD25/YT, dilution factor 32, lower table: 1.4
- pSTAT5 ratio YT CD25/YT, dilution factor 64, lower table: 2.3
- pSTAT5 ratio YT CD25/YT, dilution factor 128, lower table: 3.7

B16: RGH (ligand)
cytokine: B5 cytokine with D18R, E22G
- pSTAT5 ratio YT CD25/YT, dilution factor 2, lower table: 0.6
- pSTAT5 ratio YT CD25/YT, dilution factor 4, lower table: 0.8
- pSTAT5 ratio YT CD25/YT, dilution factor 8, lower table: 1.1
- pSTAT5 ratio YT CD25/YT, dilution factor 16, lower table: 2.1
- pSTAT5 ratio YT CD25/YT, dilution factor 32, lower table: 3.4
- pSTAT5 ratio YT CD25/YT, dilution factor 64, lower table: 5.5
- pSTAT5 ratio YT CD25/YT, dilution factor 128, lower table: 6.9
